# From PMC11347170, “Staphylococcal exoribonuclease YhaM destabilizes ribosomes by targeting the mRNA of a hibernation factor”
# Molecular target: YhaM D193A (Staphylococcus aureus JE2 (USA300), UniProt A0A0H2XHZ3 1-313, D193A)
# Assay: EMSA; 1 mM Mn2+; 15 nM RNA, 0-30 uM YhaM; partial RNA degradation at high protein; EMSA: 50 mM Na-Tricine pH 8.0, 100 mM KCl, 1 mM MnSO4, 37 C 20 min, 20% TBE native gel
# Conditions: protein: recombinant; tags: N-terminal His6 (pMCSG7); label: 5'-6-FAM; single strand
binder,measurement,value
AGGAAAAAACAUUUUAUAAAGGAGA (ssRNA) [RNA_a],binding result,binds
